Reference: patent US20210060169A1
Where a chain is given by its changes, count along the chain named.

B1: 8His-S4(oAzZK)-Li30/F78(oAzZK)-Li30 (ligand)
chain: MHHHHHHHHAPTKSSTKKTQLQLEHLLLDLQMILNGINNYKNPKLTRMLTFKFYMPKKATELKHLQCLEEELKPLEEVLNLAQSKNKHLRPRDLISNINVIVLELKGSETTFMCEYADETATIVEFLNRWITFSQSIISTLT
B2: 8His-S4(oAzZK)-Y50/I129(oAzZK)-Y50 (ligand)
chain: B1 chain with K87F, I138K
B3: 8His-S4(oAzZK)-Li30/I129(oAzZK)-Li30 (ligand)
chain: B1 chain with K87F, I138K

Tests used:
human IL-2Rαβγ (human) = human IL-2Rαβγ (human) (UniProt P01589); assay: cell-based or functional assay
Sequence of human IL-2Rαβγ (human) (P01589 22-272, chain 1 of 3): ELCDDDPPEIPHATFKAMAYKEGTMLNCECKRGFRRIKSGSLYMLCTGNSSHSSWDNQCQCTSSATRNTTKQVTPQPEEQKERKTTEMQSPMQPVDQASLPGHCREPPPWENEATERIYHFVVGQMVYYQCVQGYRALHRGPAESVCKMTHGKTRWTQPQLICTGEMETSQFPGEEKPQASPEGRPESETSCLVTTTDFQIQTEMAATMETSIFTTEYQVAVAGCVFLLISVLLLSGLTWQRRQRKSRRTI
Sequence of human IL-2Rαβγ (human) (P14784 27-551, chain 2 of 3, further chain): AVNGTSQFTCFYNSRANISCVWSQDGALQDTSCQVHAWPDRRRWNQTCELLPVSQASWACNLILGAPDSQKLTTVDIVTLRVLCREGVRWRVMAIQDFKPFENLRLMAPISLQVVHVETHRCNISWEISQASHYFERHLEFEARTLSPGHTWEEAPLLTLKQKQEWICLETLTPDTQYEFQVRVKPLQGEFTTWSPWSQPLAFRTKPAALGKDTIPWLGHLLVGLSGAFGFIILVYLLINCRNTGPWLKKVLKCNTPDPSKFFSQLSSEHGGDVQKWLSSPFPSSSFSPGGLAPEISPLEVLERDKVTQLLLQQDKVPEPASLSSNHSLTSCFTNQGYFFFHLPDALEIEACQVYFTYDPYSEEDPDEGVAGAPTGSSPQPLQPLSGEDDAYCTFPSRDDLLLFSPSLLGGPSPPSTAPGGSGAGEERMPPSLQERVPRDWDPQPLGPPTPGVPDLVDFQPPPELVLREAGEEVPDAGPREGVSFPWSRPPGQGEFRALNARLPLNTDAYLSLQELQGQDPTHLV
Sequence of human IL-2Rαβγ (human) (P31785 23-369, chain 3 of 3, further chain): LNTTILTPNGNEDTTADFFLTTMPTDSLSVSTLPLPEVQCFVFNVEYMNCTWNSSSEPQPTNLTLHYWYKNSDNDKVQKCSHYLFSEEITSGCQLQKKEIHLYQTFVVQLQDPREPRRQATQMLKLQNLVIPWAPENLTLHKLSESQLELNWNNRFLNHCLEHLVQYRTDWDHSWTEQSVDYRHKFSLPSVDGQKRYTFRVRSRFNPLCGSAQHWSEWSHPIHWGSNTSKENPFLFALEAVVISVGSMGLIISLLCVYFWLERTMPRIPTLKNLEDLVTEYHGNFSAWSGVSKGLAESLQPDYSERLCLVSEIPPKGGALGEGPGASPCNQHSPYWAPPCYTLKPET

human IL-2Rβγ (human) = human IL-2Rβγ (human) (UniProt P14784); assay: cell-based or functional assay
Sequence of human IL-2Rβγ (human) (P14784 27-551, chain 1 of 2): as the sequence (P14784 27-551, chain 2 of 3, further chain) above
Sequence of human IL-2Rβγ (human) (P31785 23-369, chain 2 of 2, further chain): as the sequence (P31785 23-369, chain 3 of 3, further chain) above

Binder | Standardized EC50 ratio value (human IL-2Rαβγ (human)) | Treg proliferation rate at 650 to 6500 pmol/L (human IL-2Rαβγ (human)) | NK cell proliferation rate at 65 nmol/L (proliferation medium) (human IL-2Rβγ (human))
B1 | > 30 | > 80% | 
B2 | > 30 |  | 
B3 | > 30 | > 80% | < 20%
